Reference: EP4414386A1 (dated 2024)

Target: T1, PSMA antigen (UniProt Q04609 1-750, limits assumed)
T1 construct: whole, on cells; On PC3-PIP cells in FACS and cell ELISA; in SPR captured on the CM5 chip from the cellular lysate of PC3-PIP by the 7E11 MAb; also called the antigen
Assay: SPR Biacore T200, single-cycle kinetics; PSMA captured from PC3-PIP lysate by 7E11 on CM5 chip

T1 sequence (Q04609 whole entry): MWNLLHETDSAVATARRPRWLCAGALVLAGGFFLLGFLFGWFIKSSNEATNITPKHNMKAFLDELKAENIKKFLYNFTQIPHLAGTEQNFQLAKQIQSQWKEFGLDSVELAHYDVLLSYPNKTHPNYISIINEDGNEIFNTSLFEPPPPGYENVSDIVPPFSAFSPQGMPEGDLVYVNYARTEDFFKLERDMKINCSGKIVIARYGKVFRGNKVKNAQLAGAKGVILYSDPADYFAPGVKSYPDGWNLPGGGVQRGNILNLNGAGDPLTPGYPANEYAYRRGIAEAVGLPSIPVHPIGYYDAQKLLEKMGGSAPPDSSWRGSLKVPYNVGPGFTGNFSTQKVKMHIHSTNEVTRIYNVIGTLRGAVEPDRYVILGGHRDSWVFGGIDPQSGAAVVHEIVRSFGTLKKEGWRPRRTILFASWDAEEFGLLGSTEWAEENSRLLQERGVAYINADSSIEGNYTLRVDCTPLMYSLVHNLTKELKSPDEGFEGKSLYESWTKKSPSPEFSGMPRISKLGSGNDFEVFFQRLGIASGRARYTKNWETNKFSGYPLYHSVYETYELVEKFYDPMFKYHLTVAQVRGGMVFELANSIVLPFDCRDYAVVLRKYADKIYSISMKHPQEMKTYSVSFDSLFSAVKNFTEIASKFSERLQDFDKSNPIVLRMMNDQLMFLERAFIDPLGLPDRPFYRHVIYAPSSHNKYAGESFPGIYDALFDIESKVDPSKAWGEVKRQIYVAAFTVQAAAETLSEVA

Row | Binder | Kd [nM] | RU max [RU]
1 | scFv D2B produced in prokaryotic system (bacteria) (scFv, also called ScFvD2B from bacteria; scFv produced in bacteria; not shown: Myc tag) scFv: EVKLQESGPGLVKPSQSLSLTCSVTGYSITSGYYWNWIRQFPGNKLEWMGSISFDGNNNYNPSLRNRISITRDTSKNQFFLKLNSVTTEDTATYYCAREGDYYGSSFFTYWGQGTLVTVSSGGGGSGGGGSGGGGSALDIVMTQSPASLSASVGETVTLTCGASENIYGALNWYQRKQGKSPQLLIYGATNLADGMSSRFSGSGSGRQYSLKISSLHPDDVATYYCQNVFRTYTFGGGTKLEIKRAAAHHHHHH | 2.3 | 34
2 | scFv D2B produced in eukaryotic mammalian cells (scFv, also called ScFvD2B from eukaryote; scFv produced in eukaryotic mammalian cells) scFv: EVKLQESGPGLVKPSQSLSLTCSVTGYSITSGYYWNWIRQFPGNKLEWMGSISFDGNNNYNPSLRNRISITRDTSKNQFFLKLNSVTTEDTATYYCAREGDYYGSSFFTYWGQGTLVTVSSGGGGSGGGGSGGGGSALDIVMTQSPASLSASVGETVTLTCGASENIYGALNWYQRKQGKSPQLLIYGATNLADGMSSRFSGSGSGRQYSLKISSLHPDDVATYYCQNVFRTYTFGGGTKLEIKRAAAHHHHHH | 2.8 | 68
3 | scFv D2B produced by synthesis (folded scFv D2B compound 27) (scFv, pyroglutamic acid (<E) at position 1, Fully chemically synthesised, 254 residues, two disulfide bonds (C22-C96 and C161-C226); segment 5 is C226-H254; also called ScFvD2B of synthesis; scFv produced by synthesis) scFv: EVKLQESGPGLVKPSQSLSLTCSVTGYSITSGYYWNWIRQFPGNKLEWMGSISFDGNNNYNPSLRNRISITRDTSKNQFFLKLNSVTTEDTATYYCAREGDYYGSSFFTYWGQGTLVTVSSGGGGSGGGGSGGGGSALDIVMTQSPASLSASVGETVTLTCGASENIYGALNWYQRKQGKSPQLLIYGATNLADGMSSRFSGSGSGRQYSLKISSLHPDDVATYYCQNVFRTYTFGGGTKLEIKRAAAHHHHHH | 1.9 | 34
